1 molecule from patent publication US20260201022A1 can be followed below.

For this assay, the target named is BauA on the surface of the strains of the A. baumannii diversity set (100 strains, MRSN). The experiment in a line: native ELISA on the diversity set of 100 A. baumannii strains. A general note: In an ELISA, binding on a coated surface is turned into a signal by an enzyme label.

B1: αBauA mouse monoclonal antibody against BauA of Acinetobacter baumannii (hybridoma subclone 12C1) (antibody, V domains shown)
VH: EVQLQESGADLVRPGSSVKISCKASGYAFSNYWMHWMKQRPGQGLEWIGQIYPGDGDTNYNGKFKGKATLTADKSSSSAYMQLSSLISEDSAVYFCARGDFYYGSPFAYWGQGTLVTVSA
VL: DIVMTQAAPSVPVTPGESVSISCRSSKSLLHSNGNTYLYWFLQRPGQSPQLLIYRMSNLASGVPDRFSGSGSGTAFTLRISRVEAEDVGVYYCMQHLEYPLTFGAGTKLELK
The molecule B1 showed a percent of strains recognized of more than 68%.
